Measurements as given in patent US20250325651A1.

Tests used:
Assay in all cases: sandwich ELISA (coated antibody, conditioned medium, anti-His detection), OD450 grade
[1] = biological target: hMPV005 hMPV F-CompA fusion protein (human metapneumovirus (strain A))
[2] = biological target: hMPV008 hMPV F-CompA fusion protein (human metapneumovirus (strain B))
[3] = biological target: hMPV021 hMPV F-CompA fusion protein (human metapneumovirus (strain B))
[4] = biological target: hMPV024 hMPV F-CompA fusion protein (human metapneumovirus (strain A))
[5] = biological target: hMPV026 hMPV F-CompA fusion protein (not cleaved by furin) (human metapneumovirus (strain A))
[6] = biological target: hMPV027 hMPV F-CompA fusion protein (not cleaved by furin) (human metapneumovirus (strain A))
[7] = biological target: hMPV027C, furin-cleaved form of hMPV027 hMPV F-CompA fusion protein (human metapneumovirus (strain A))
[8] = biological target: hMPV033 hMPV F-CompA fusion protein (human metapneumovirus (strain A))

Measured: OD450

MPE8 (antibody)
1 to 2 od: all assays above
